Experiments:
[1] = biological target: HIV-1 CAP256 SU gp140 NFL, mammalian cell-produced (HEK293) (HIV-1 (CAP256 SU virus)); assay: SEC
[2] = biological target: HIV-1 CAP256 SU gp140 NFL, mammalian cell-produced (HEK293) (HIV-1 (CAP256 SU virus)); assay: native gel or EMSA; BN-PAGE of the pooled trimer fractions on 4-12% NativePAGE Bis-Tris gels, Coomassie-stained
[3] = biological target: HIV-1 CAP256 SU gp140 NFL, plant-produced (Nicotiana benthamiana) (HIV-1 (CAP256 SU virus)); assay: SEC

Row | Substance | stoichiometry N [1] | stoichiometry N [2] | stoichiometry N [3]
1 | HIV-1 CAP256 SU gp140 NFL, mammalian cell-produced (HEK293) (domain or fragment) | 3 | 3 | –
2 | HIV-1 CAP256 SU gp140 NFL, plant-produced (Nicotiana benthamiana) (domain or fragment) | – | – | 3
